Assay results: the DeepSol protein solubility set

Assay: soluble on expression in E. coli; label from the status in PepcDB or PDB records

Sequence	soluble on expression in E. coli
EYKPKKGLASCWLSSKSHTLLNEEDFFTKDERIGIRKDYEGATNDDAFFCQRYYRFKNFKEVEGEKTKVCKQPPVREHDFCFAVLLETHRDIKHEELNKRIVYLGGERQPFLMDLMEVSEETFKLNIESSTLTSDEKHYTVVLLSDAMIEPKLLEGVKFASTEVKDFACLLTHVGTRRFYNKKKKREEQNIEEVETALSHQHELYARGSVFYFDTKEQANQFCEDLEKVPNFHTIGYNHAIIIEPTKTKK	not soluble
PGAPSTVRISKNVDGIHLSWEPPTSPSGNILEYSAYLAIRTAQMQDNPSQLVFMRIYCGLKTSCTVTAGQLANAHIDYTSRPAIVFRISAKNEKGYGPATQIRWLQGNSK	soluble
MGSDKIHHHHHHMTRPPDLLADVLDGIDALLVFSPSGSYYDRVDDVEGVDVVVVATENAVGAETFVELPLAFDDVREQIRFGIEGALSEGVVADGDELGCVAPFLSEEVDMVTRTRANAGTQSSVYELFASTRAEPGVIRDVFDVAIELGRKGQKGKPVGALFVVGDAGKVMTKSRPLSYNPFEKSHVHVGDPIVNVMLKEFSRLDGAFVISDSGKIVSSYRYLEPGAEGTDIPKGLGARHMAAGAITRDTNAVAIVLSESDGLVRAFRNGELVLELDPEDN	not soluble
MYQLSRTQILPVPLTVAWDFFSDPRNLAAITPPDMGFVITSPVPERTHAGMVVTYAVSPFGGLRLPWVTEITHCAEPSLFVDEQRFGPYRFWHHQHHFLEVSGGVEMRDIVHYILPFGIIGRLSAPVVAKRLKAIFDYRRDTLAVRFAALSRGALEHHHHHH	not soluble
GAPRSHEVPLLVTLEELYLGKRKKIKVTRKRFIEHKVRNEENIVEVEIKPGWKDGTKLTYSGEGDQESPGTSPGDLVLIIQTKTHPRFTRDDCHLIMKVTIPLVRALTGFTCPVTTLDNRNLQIPIKEIVNPKTRKIVPNEGMPIKNQPGQKGDLILEFDICFPKSLTPEQKKLIKEALD	soluble
MGSSHHHHHHSSGLVPRGSHMLDFNIEGLIPKNMEKRGELVLNEYLKEIEDVFNHRKIPENGIDDEKIKLFLKFLSMMDTDKDPKSVRIGEREARTYSKIHEELSSGFCHGIGRSGNLVDPQPKASGASIMYALTNKILESFFKQLGLNVHAIATPISTGMSISLCLSAARKKYGSNVVIYPYASHKSPIKAVSFVGMNMRLVETVLDGDRVYVPVEDIENAIKKEIELGNRPCVLSTLTFFPPRNSDDIVEIAKICENYDIPHIINGAYAIQNNYYLEKLKKAFKYRVDAVVSSSDKNLLTPIGGGLVYSTDAEFIKEISLSYPGRASATPVVNTLVSLLSMGSKNYLELVKNQKNSKKLLDELLNDLSKKTGGKFLDVESPIASCISVNSDPVEIAAKLYNLRVTGPRGIKKTDHFGNCYLGTYTHDYIVMNAAIGVRTEDIVNSVSKLEKILL	soluble
MRIEEFDYELPEELIAKYPAVPRHSARLMVLNRKDQSIKHDTFINLPDYLEEGDLLVFNNTKVIPARLYGRKPTGGRVEVVLTDFIKPDEWKALIGGKKIRPGLVIEVAPDFKVEVLEHIEEGKFRVKLLGEEPLKLIDKYGHIPIPPYLKREEEPIDRVYYQTIFAKEKGAVASPTASLHFSEELLEKLKEKGINFAFITLHVSYGTFKPVKVERVEEHRVDPEYVKIPKETVEKIKETKEKGKRVVAVGTTVVRALETKPFEPFEGWTDLYIYPGFKFKVVDAMITNFHLPRSSLLILVSAFAGREFILKAYREAVEKRYRFYSYGDGMLIL	soluble
MSRPRKRLAGTSGSDKGLSGKRTKTENSGEALAKVEDSNPQKTSATKNCLKNLSSHWLMKSEPESRLEKGVDVKFSIEDLKAQPKQTTCWDGVRNYQARNFLRAMKLGEEAFFYHSNCKEPGIAGLMKIVKEAYPDHTQFEKNNPHYDPSSKEDNPKWSMVDVQFVRMMKRFIPLAELKSYHQAHKATGGPLKNMVLFTRQRLSIQPLTQEEFDFVLSLEEKGPSLEHHHHHH	not soluble
MAGKLIANLIVMGSGIIGRAMLQAYRKALDNANKTGVAHETINNIRRASKTMTEQEARQILGVSEQSTWEEIAQRYDNLFERNAKSGSFYLQSKVHRAKECLENVYQKNKQDGTPP	soluble
MSLGRGLYFNQAQKHFQQLLLMEERATIARELHDSLAQVLSYLRIQLTLLKRSIPEDNATAQSIMADFSQALNDAYRQLRELLTTFRLTLQQADLPSALREMLDTLQNQTSAKLTLDCRLPTLALDAQMQVHLLQIIREAVLNAMKHANASEIAVSCVTAPDGNHTVYIRDNGIGIGEPKEPEGHYGLNIMRERAERLGGTLTFSQPSGGGTLVSISFRSAEGEESQLMEGHHHHHH	soluble
MSSQIRQNYSTEVEAAVNRLVNLYLRASYTYLSLGFYFDRDDVALEGVCHFFRELAEEKREGAERLLKMQNQRGGRALFQDLQKPSQDEWGTTPDAMKAAIVLEKSLNQALLDLHALGSAQADPHLCDFLESHFLDEEVKLIKKMGDHLTNIQRLVGSQAGLGEYLFERLTLKHD	soluble
MSLDLFDRKAAADTLKEAPLAERMRPRTLAEYVGQEHLLGPGKLLRQLIETDQLTSLIFWGPPGSGKTTLARIIAGATKSHFIFFSAILSGIKEIREIVKEADDIRKFHGKRTILFVDEIHRFNKSQQDAFLPYVERGVFTIIGATTENPSFEVIAPLLSRCKVLVLNPLTEEEITGILRQALADKERGLGALDLAIEDDALTFMAEQAGGDARVALNTLETASRLTSNGVVSLDTAREAVQKKPLLYDKGGEEHYNVISAFIKSMRGSDPDGALYWLARMIEAGEDPIFILRRMVILASEDIGNADPRALQVAVTALQGFQLVGMPEGRIIIGQAVTYLATAPKSNASYVGIDAALAEVRKSGALPVPLHIRNAPTRLMKDLGYGTGYRYAHDYAEGYVAQDYLPDQIKGRKYYDPTGHGYEKSIKERMEWLKGKKEGHHHHHH	soluble
MGSDKIHHHHHHMNYTDTLKSVDLVLATGEVPLIIGESGIGKTALAKELAQQNQWSLVIINGNLLKEGEIGGLPTIESYVFSGPEAVNPLAATAAKTVGNEQGILQEKKSTVYAVHHKLREIDEAIARGQTVLLFIDEINRCEHTVQQELMNLILNREINGYILPEGVKILAAMNPSSKYGSDFDYQVVDMDAAQENRFVWLFMKPDHKQWIDWAIGAGIEPKVIEFISTFPDYLHKINEDDLRATPRSYERISSSYKIYQENKDSIPRSVFLNVVKGNVGRVIAEEFVNFAEADYSPLIAYDDIFSGTSLPESLRDKVKEESHTRLYLSARNILQTLESHLSKTPANAPDHAQSSMDRLVAFLKLYPVDLKIGIMKDIRSSYPEIYRQAIENEGFVDSYFESYGSLR	not soluble
GMLEFTKRSLMNKYNINERVLELYERALNDVEKEFKYYDEIREYNQLKVLKAFQEERISESHFTNSSGYGYNDIGRDSLDRVYANIFNTESAFVRPHFVNGTHAIGAALFGNLRPNDTMMSICGMPYDTLHDIIGMDDSKKVGSLREYGVKYKMVDLKDGKVDINTVKEELKKDDSIKLIHIQRSTGYGWRKSLRIAEIAEIIKSIREVNENVIVFVDNCYGEFVEEKEPTDVGADIIAGSLIKNIGGGIATTGGYIAGKEEYVTQATFRVTVPGIGGECGSTFGVMRSLYEGLFMAPHVTIEAVKGAVFCARIMELAGFDVLPKYNDKRTDIIQAIKFNDEKKLIDFIKGIQTASPVDSFVQCEAWDMPGYEDKVIMAAGTFVQGASIELSADAPIREPYIGYLQGGLTFDHAKLGVLIALSKLIM	soluble
MRLFHELLGPLELPDRFSRIVSLAPNLTDALFALGLGERLVGRSAFCHRPAPVLALPVVASYTKTRLELLRSLKPDLVLLSTGVQREQALRLKEEGFPVYAVPLPTSPYGILENLSTLGHLLDLEERAVALAHELSGRYAALRGRFDLRVYFEMDLGGPITVGRGSYIAQALLHMGLKPIFLDVPQAYFAPDLEEVRRRAPDLFLYEPKPWGKNPLEKARALARERGWDFPVAATDGDELAHYGPMFFGFLEKLARRVEETLGQA	soluble
MSNIERRHTIMAKGSVRKKGKKWYYRFYVEDASGNLVQKECVGTESKSETEKLLRQAMDDYEKKKFVAKAENLTVGQLLDVWAEEELKTSTLSNGTVENYLGTIRNIKKHPLAERKLKNVTSEHLQSFFDLLSFGGVHPDGKEKKGYSKDYIHSFSAVMQQSFRFAVFPKQYITFNPMQYIKLRYQTDEVDLFSDEDMDGNIQPISREDYERLLAYLQKKNPAAILPIQIAYYAGLRIGEACGLAWQDVNLEEQCLTIRRSIRYDGSKRKYIIGPTKRKKVRVVDFGDTLVEIFRNARKEQLKNRMQYGELYHTNYYKEVKEKNRVYYEYYCLDRTEEVPADYKEISFVCLRPDGCLELPTTLGTVCRKVAKTLEGFEGFHFHQLRHTYTSNLLANGAAPKDVQELLGHSDVSTTMNVYAHSTRDAKRKSVRLLDKVVGND	not soluble
MGSSHHHHHHSSGLVPRGSAVPLCKQALEDLEKTSGHDHPDVATMLNILALVYRDQNKYKEAAHLLNDALAIREKTLGKDHPAVAATLNNLAVLYGKRGKYKEAEPLCKRALEIREKVLGKFHPDVAKQLSNLALLCQNQGKAEEVEYYYRRALEIYATRLGPDDPNVAKTKNNLASCYLKQGKYQDAETLYKEILTRAHEKEFGSVNGDNKPIWMHAEEREESKDKRRDSAPYGEYGSWYKACKVDSPTVNTTLRSLGALYRRQGKLEAAHTLEDCASRNRK	soluble
GPGSMRRANEVAREMWAPSTWERRMSLAGQFTTFCCTHERPIKEESCAAFLMAIEVAPSTRPQYARMLRSMLEMDRTPLDMMIVGLQKKIAARSETKQARLLTKEEMNQLIRSRTDWKERVVLRLAWITASCWSEIEALIPNNFTLERDGALILDWSLAPKTARADPHRASRFVRIRGLDAFDTIKLCRTLQHSEKLTNITNAQVERALVPWNATAHSIKRGALRRAAQIVEAYNFNPHVISQLAMHVDPFDLPQNTVRYLGKHTTLLTQVSSLVAFL	not soluble
MHHHHHHGKPIPNPLLGLDSTENLYFQGIDPFTDVAAPSPAAAAEPGPAARPRSTRGQVRLPGGEFAMGDAFGEGYPADGETPVHTVRLRPFHIDETAVTNARFAAFVKATGHVTDAERFGSSAVFHLVVAAPDADVLGSAAGAPWWINVRGAHWRRPEGARSDITGRPNHPVVHVSWNDATAYARWAGKRLPTEAEWEYAARGGLAGRRYAWGDELTPGGRWRCNIWQGRFPHVNTAEDGHLSTAPVKSYRPNGHGLWNTAGNVWEWCSDWFSPTYYAESPTVDPHGPGTGAARVLRGGSYLCHDSYCNRYRVAARSSNTPDSSSGNLGFRCANDADLTSGSAAE	soluble
MRIGPELLQDLLDRVEGSLAAAIGTADGLLVEGVRKRPLDLEAAIAEHAALWRQARAAYARSLGAEEVGELLVGGTGVVGYLRSMRTRDPEPLFLLLLLTPEANLGQARLAARRLLDRAGGVVAWPT	soluble
